{
  "source": "patent US8431531B2",
  "about": "“Methods for stimulating glucagon-like peptide-1(GLP-1) secretion and treatments comprising same” (Campina Nederland Holding B.V., priority 2005, dated 2013)",
  "key": {"[1]": {"biological_target": "T1, DPP-IV (Sus scrofa, UniProt P22411)", "T1 construct": "purchased Sigma D-7052", "T1 sequence (P22411 whole entry)": "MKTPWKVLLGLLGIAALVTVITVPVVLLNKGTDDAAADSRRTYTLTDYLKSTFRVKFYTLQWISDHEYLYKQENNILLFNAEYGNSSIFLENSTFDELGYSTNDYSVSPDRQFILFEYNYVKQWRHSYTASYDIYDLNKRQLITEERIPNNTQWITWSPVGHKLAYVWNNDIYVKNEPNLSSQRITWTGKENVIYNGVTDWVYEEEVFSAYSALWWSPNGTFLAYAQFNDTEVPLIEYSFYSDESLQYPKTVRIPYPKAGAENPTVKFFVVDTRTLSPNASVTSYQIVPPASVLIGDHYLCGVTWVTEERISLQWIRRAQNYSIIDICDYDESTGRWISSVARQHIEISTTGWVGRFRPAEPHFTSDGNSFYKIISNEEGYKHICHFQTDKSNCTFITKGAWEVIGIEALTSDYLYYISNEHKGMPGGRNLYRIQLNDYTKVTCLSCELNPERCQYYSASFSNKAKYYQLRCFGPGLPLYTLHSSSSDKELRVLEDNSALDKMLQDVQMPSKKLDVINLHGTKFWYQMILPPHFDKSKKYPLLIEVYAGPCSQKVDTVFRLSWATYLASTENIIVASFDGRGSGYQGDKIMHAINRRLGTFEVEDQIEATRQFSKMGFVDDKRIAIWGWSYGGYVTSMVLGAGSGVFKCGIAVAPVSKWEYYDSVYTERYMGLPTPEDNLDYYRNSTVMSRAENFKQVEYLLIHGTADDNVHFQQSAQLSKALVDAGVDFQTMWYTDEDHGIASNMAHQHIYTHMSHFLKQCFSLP", "assay": "In vitro measurement of DPP-IV activity (Gly-Pro-p-nitroanilide substrate, absorption at 385 nm)", "format": "biochemical", "settings": "Tris buffer pH 8.0", "procedure": "DPP-IV activity can be determined by measuring the increase in absorption at 385 nm using Gly-Pro-p-nitroanilide (Sigma G-0513) as DPP-IV substrate. A decrease in DPP-IV activity is a measure for the inhibition.\n13.152 mg Gly-Pro-p-nitroanilide (substrate; Sigma G-0513) was dissolved in 1 ml Tris buffer, pH 8.0. DPP-IV (Sigma D-7052) was diluted with Tris buffer, pH 8.0 to 1.1 Unit/ml. The substrate was diluted 50-fold with Tris buffer, pH 8.0. The samples were prepared by diluting a protein hydrolysate to a 1 wt. % protein solution in Tris buffer, pH 8.0. The samples were then serially diluted to obtain a range of sample concentrations. 50 μl of the different serially diluted samples and 50 μl of the diluted substrate were then pipetted in wells of a microtiter plate with 96 wells. Subsequently, 100 μl of the diluted enzyme was pipetted in each well of a plate with 96 wells. Then the increase in absorption at 385 nm was determined and DPP-IV activities at different concentrations of a variety of protein hydrolysates were determined, from which the IC50 (i.e. the concentration of inhibitor (particular protein hydrolysate) that inhibits 50% of the DPP-IV activity) could be derived. […] The degree of hydrolysis was determined using the o-phtaldialdehyde method, which is well known in the art."}, "[2]": {"settings": "plasma; degradation by DPP-IV; cited from earlier work"}, "[3]": {"test_system": "Bipro from Davisco Foods, USA (unhydrolysed, DH 0%)"}, "[4]": {"test_system": "Sodium caseinate from DMV International, NL (unhydrolysed, DH 0%)"}},
  "data": [
    {"substance": "Sodium caseinate", "values": [
      {"measurement": "DPP-IV inhibition by unhydrolysed protein (control, DH 0%)", "setting": "[1]", "value": "did not inhibit the enzyme"}
    ]},
    {"substance": "GLP-1: 30 amino acid incretin peptide, sequence HAEGTFTSDVSSYLEGQAAKEFIAWLVKGR (SEQ ID NO: 1)", "values": [
      {"measurement": "half-life", "setting": "[2]", "value": "1 to 2", "unit": "min"}
    ]},
    {"substance": "dipeptidyl peptidase IV (DPP-IV)", "values": [
      {"measurement": "DPP-IV activity (Gly-Pro-p-nitroanilide substrate, absorption at 385 nm)", "setting": "[3]", "value": "unhydrolysed protein did not inhibit the enzyme"},
      {"measurement": "DPP-IV activity (Gly-Pro-p-nitroanilide substrate, absorption at 385 nm)", "setting": "[4]", "value": "unhydrolysed protein did not inhibit the enzyme"}
    ]}
  ]
}
